According to patent publication US9260500B2, “Peptide and use thereof” (Takeda Pharmaceutical Company Limited, priority 2009, dated 2016):
Non-standard residues stand in square brackets, D forms with d. 4Pal = N[C@@H](Cc1ccncc1)C(=O)O; dHyp = O=C(O)[C@H]1C[C@H](O)CN1; Cha = N[C@@H](CC1CCCCC1)C(=O)O; d(αMeP) = C[C@]1(C(=O)O)CCCN1; dPip = O=C(O)[C@H]1CCCCN1; hSer = N[C@@H](CCO)C(=O)O; Nle = CCCC[C@H](N)C(=O)O; Aib = CC(C)(N)C(=O)O; GABA = NCCCC(=O)O; βAla = NCCC(=O)O

Experiments:
human Y2 receptor [1] = biological target: T1, human Y2 receptor (Homo sapiens, UniProt P49146); test: Human Y2 Receptor G Protein Binding Assay (GBA), [35S]GTPγS; format: biochemical; settings: EC50 of test compound/EC50 of PYY(3-36) (PYY3-36 taken as 1), hY2R/CHO membrane fraction
T1 construct: expressed in transfected cells; membrane fraction
T1 sequence (P49146 1-381): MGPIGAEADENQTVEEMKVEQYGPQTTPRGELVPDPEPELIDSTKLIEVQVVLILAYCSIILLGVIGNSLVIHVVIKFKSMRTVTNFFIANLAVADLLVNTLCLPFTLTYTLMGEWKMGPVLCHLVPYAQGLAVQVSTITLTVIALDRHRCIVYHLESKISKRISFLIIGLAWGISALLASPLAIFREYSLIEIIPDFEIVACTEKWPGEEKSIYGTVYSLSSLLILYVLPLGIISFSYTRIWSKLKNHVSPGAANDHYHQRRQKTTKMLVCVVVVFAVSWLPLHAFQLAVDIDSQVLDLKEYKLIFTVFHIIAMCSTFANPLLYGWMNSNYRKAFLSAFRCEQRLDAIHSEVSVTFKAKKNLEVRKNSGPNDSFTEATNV
How it was run: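 Agonism measured as [35S]GTPγS binding, read by GF/C filtration and scintillation counting after 120 min at room temperature, using human Y2 membranes at 1 μg protein/mL in pH 7.4 Tris/MgCl2/NaCl/GDP buffer. Compound serially diluted 100 μM–1 nM; EC50 normalized to PYY(3-36) (ratio = compound/PYY).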

human Y2 receptor [2] = biological target: T1, human Y2 receptor; test: Receptor Binding Assay (RBA) for Human Y2, [125I]-PYY displacement on hY2R/CHO membrane fraction; settings: IC50 of test compound/IC50 of PYY(3-36) (PYY(3-36) taken as 1)
How it was run: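 hY2R stably expressed in CHO/dhfr− cells; membrane fraction prepared from cells disrupted in 10 mM NaHCO3, 5 mM EDTA buffer with protease inhibitors. Binding read as displacement of [125I]-PYY.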

Substance	GBA EC50 Ratio (human Y2 receptor [1])	RBA IC50 Ratio (human Y2 receptor [2])
Ac-[D-αMePro24, Cha27,28,36, Aib31]-PYY(23-36) (Ac-S[d(αMeP)]RH[Cha][Cha]NL[Aib]TRQR[Cha]-NH2; SMILES CC(=O)N[C@@H](CO)C(=O)N1CCC[C@]1(C)C(=O)N[C@@H](CCCNC(=N)N)C(=O)N[C@@H](Cc1c[nH]cn1)C(=O)N[C@@H](CC1CCCCC1)C(=O)N[C@@H](CC1CCCCC1)C(=O)N[C@@H](CC(N)=O)C(=O)N[C@@H](CC(C)C)C(=O)NC(C)(C)C(=O)N[C@H](C(=O)N[C@@H](CCCNC(=N)N)C(=O)N[C@@H](CCC(N)=O)C(=O)N[C@@H](CCCNC(=N)N)C(=O)N[C@@H](CC1CCCCC1)C(N)=O)[C@@H](C)O) [compound No. 155]	2.6	4.5
Ac-[Dap22, D-Pro24, Pya(4)26, Cha27,36, Aib28,31, Lys30]-PYY(22-36) [compound No. 273]	1.6	1.2
Ac-[GABA24, Cha27,28,36, Aib31]-PYY(23-36) (Ac-S[GABA]RH[Cha][Cha]NL[Aib]TRQR[Cha]-NH2; SMILES CC(=O)N[C@@H](CO)C(=O)NCCCC(=O)N[C@@H](CCCNC(=N)N)C(=O)N[C@@H](Cc1c[nH]cn1)C(=O)N[C@@H](CC1CCCCC1)C(=O)N[C@@H](CC1CCCCC1)C(=O)N[C@@H](CC(N)=O)C(=O)N[C@@H](CC(C)C)C(=O)NC(C)(C)C(=O)N[C@H](C(=O)N[C@@H](CCCNC(=N)N)C(=O)N[C@@H](CCC(N)=O)C(=O)N[C@@H](CCCNC(=N)N)C(=O)N[C@@H](CC1CCCCC1)C(N)=O)[C@@H](C)O) [compound No. 156]	3.0	5.8
Ac-[Gln23, D-Pro24, Pya(4)26, Cha27,36, Aib28,31, Lys30]-PYY(23-36) (Ac-Q[dP]R[4Pal][Cha][Aib]NK[Aib]TRQR[Cha]-NH2; SMILES CC(=O)N[C@@H](CCC(N)=O)C(=O)N1CCC[C@@H]1C(=O)N[C@@H](CCCNC(=N)N)C(=O)N[C@@H](Cc1ccncc1)C(=O)N[C@@H](CC1CCCCC1)C(=O)NC(C)(C)C(=O)N[C@@H](CC(N)=O)C(=O)N[C@@H](CCCCN)C(=O)NC(C)(C)C(=O)N[C@H](C(=O)N[C@@H](CCCNC(=N)N)C(=O)N[C@@H](CCC(N)=O)C(=O)N[C@@H](CCCNC(=N)N)C(=O)N[C@@H](CC1CCCCC1)C(N)=O)[C@@H](C)O) [compound No. 210]	0.9	1.3
Ac-[Glu23, D-Hyp24, Pya(4)26, Cha27,36, Aib28,31, Lys30]-PYY(23-36) (Ac-E[dHyp]R[4Pal][Cha][Aib]NK[Aib]TRQR[Cha]-NH2; SMILES CC(=O)N[C@@H](CCC(=O)O)C(=O)N1C[C@@H](O)C[C@@H]1C(=O)N[C@@H](CCCNC(=N)N)C(=O)N[C@@H](Cc1ccncc1)C(=O)N[C@@H](CC1CCCCC1)C(=O)NC(C)(C)C(=O)N[C@@H](CC(N)=O)C(=O)N[C@@H](CCCCN)C(=O)NC(C)(C)C(=O)N[C@H](C(=O)N[C@@H](CCCNC(=N)N)C(=O)N[C@@H](CCC(N)=O)C(=O)N[C@@H](CCCNC(=N)N)C(=O)N[C@@H](CC1CCCCC1)C(N)=O)[C@@H](C)O) [compound No. 208]	2.2	3.4
Ac-[Glu23, D-Pic(2)24, Cha27,28,36, Aib31]-PYY(23-36) (Ac-E[dPip]RH[Cha][Cha]NL[Aib]TRQR[Cha]-NH2; SMILES CC(=O)N[C@@H](CCC(=O)O)C(=O)N1CCCC[C@@H]1C(=O)N[C@@H](CCCNC(=N)N)C(=O)N[C@@H](Cc1c[nH]cn1)C(=O)N[C@@H](CC1CCCCC1)C(=O)N[C@@H](CC1CCCCC1)C(=O)N[C@@H](CC(N)=O)C(=O)N[C@@H](CC(C)C)C(=O)NC(C)(C)C(=O)N[C@H](C(=O)N[C@@H](CCCNC(=N)N)C(=O)N[C@@H](CCC(N)=O)C(=O)N[C@@H](CCCNC(=N)N)C(=O)N[C@@H](CC1CCCCC1)C(N)=O)[C@@H](C)O) [compound No. 120]	10	17
Ac-[Glu23, D-Pro24, Nle25, Pya(4)26, Cha27,28,36, Lys30, Aib31]-PYY(23-36) (Ac-E[dP][Nle][4Pal][Cha][Cha]NK[Aib]TRQR[Cha]-NH2; SMILES CCCC[C@H](NC(=O)[C@H]1CCCN1C(=O)[C@H](CCC(=O)O)NC(C)=O)C(=O)N[C@@H](Cc1ccncc1)C(=O)N[C@@H](CC1CCCCC1)C(=O)N[C@@H](CC1CCCCC1)C(=O)N[C@@H](CC(N)=O)C(=O)N[C@@H](CCCCN)C(=O)NC(C)(C)C(=O)N[C@H](C(=O)N[C@@H](CCCNC(=N)N)C(=O)N[C@@H](CCC(N)=O)C(=O)N[C@@H](CCCNC(=N)N)C(=O)N[C@@H](CC1CCCCC1)C(N)=O)[C@@H](C)O) [compound No. 172]	1.3	2.3
Ac-[Glu23, D-Pro24, Nle25, Pya(4)26, Cha27,36, Aib28,31, Lys30]-PYY(23-36) (Ac-E[dP][Nle][4Pal][Cha][Aib]NK[Aib]TRQR[Cha]-NH2; SMILES CCCC[C@H](NC(=O)[C@H]1CCCN1C(=O)[C@H](CCC(=O)O)NC(C)=O)C(=O)N[C@@H](Cc1ccncc1)C(=O)N[C@@H](CC1CCCCC1)C(=O)NC(C)(C)C(=O)N[C@@H](CC(N)=O)C(=O)N[C@@H](CCCCN)C(=O)NC(C)(C)C(=O)N[C@H](C(=O)N[C@@H](CCCNC(=N)N)C(=O)N[C@@H](CCC(N)=O)C(=O)N[C@@H](CCCNC(=N)N)C(=O)N[C@@H](CC1CCCCC1)C(N)=O)[C@@H](C)O) [compound No. 227]	6.9	7.5
Ac-[Glu23, D-Pro24, Pya(4)26, Cha27,28,36, Aib31]-PYY(23-36) (Ac-E[dP]R[4Pal][Cha][Cha]NL[Aib]TRQR[Cha]-NH2; SMILES CC(=O)N[C@@H](CCC(=O)O)C(=O)N1CCC[C@@H]1C(=O)N[C@@H](CCCNC(=N)N)C(=O)N[C@@H](Cc1ccncc1)C(=O)N[C@@H](CC1CCCCC1)C(=O)N[C@@H](CC1CCCCC1)C(=O)N[C@@H](CC(N)=O)C(=O)N[C@@H](CC(C)C)C(=O)NC(C)(C)C(=O)N[C@H](C(=O)N[C@@H](CCCNC(=N)N)C(=O)N[C@@H](CCC(N)=O)C(=O)N[C@@H](CCCNC(=N)N)C(=O)N[C@@H](CC1CCCCC1)C(N)=O)[C@@H](C)O) [compound No. 141]	1.3	4.6
Ac-[Glu23, D-Pro24, Pya(4)26, Cha27,36, Aib28,31, Lys30]-PYY(22-36) (Ac-AE[dP]R[4Pal][Cha][Aib]NK[Aib]TRQR[Cha]-NH2; SMILES CC(=O)N[C@@H](C)C(=O)N[C@@H](CCC(=O)O)C(=O)N1CCC[C@@H]1C(=O)N[C@@H](CCCNC(=N)N)C(=O)N[C@@H](Cc1ccncc1)C(=O)N[C@@H](CC1CCCCC1)C(=O)NC(C)(C)C(=O)N[C@@H](CC(N)=O)C(=O)N[C@@H](CCCCN)C(=O)NC(C)(C)C(=O)N[C@H](C(=O)N[C@@H](CCCNC(=N)N)C(=O)N[C@@H](CCC(N)=O)C(=O)N[C@@H](CCCNC(=N)N)C(=O)N[C@@H](CC1CCCCC1)C(N)=O)[C@@H](C)O) [compound No. 220]	3.5	5.3
Ac-[Glu23, D-Pro24, Pya(4)26, Cha27,36, Aib28,31, Lys30]-PYY(23-36) (Ac-E[dP]R[4Pal][Cha][Aib]NK[Aib]TRQR[Cha]-NH2; SMILES CC(=O)N[C@@H](CCC(=O)O)C(=O)N1CCC[C@@H]1C(=O)N[C@@H](CCCNC(=N)N)C(=O)N[C@@H](Cc1ccncc1)C(=O)N[C@@H](CC1CCCCC1)C(=O)NC(C)(C)C(=O)N[C@@H](CC(N)=O)C(=O)N[C@@H](CCCCN)C(=O)NC(C)(C)C(=O)N[C@H](C(=O)N[C@@H](CCCNC(=N)N)C(=O)N[C@@H](CCC(N)=O)C(=O)N[C@@H](CCCNC(=N)N)C(=O)N[C@@H](CC1CCCCC1)C(N)=O)[C@@H](C)O) [compound No. 209]	1.9	2.7
Ac-[Glu23, βAla24, Pya(4)26, Cha27,36, Aib28,31, Lys30]-PYY(23-36) (Ac-E[βAla]R[4Pal][Cha][Aib]NK[Aib]TRQR[Cha]-NH2; SMILES CC(=O)N[C@@H](CCC(=O)O)C(=O)NCCC(=O)N[C@@H](CCCNC(=N)N)C(=O)N[C@@H](Cc1ccncc1)C(=O)N[C@@H](CC1CCCCC1)C(=O)NC(C)(C)C(=O)N[C@@H](CC(N)=O)C(=O)N[C@@H](CCCCN)C(=O)NC(C)(C)C(=O)N[C@H](C(=O)N[C@@H](CCCNC(=N)N)C(=O)N[C@@H](CCC(N)=O)C(=O)N[C@@H](CCCNC(=N)N)C(=O)N[C@@H](CC1CCCCC1)C(N)=O)[C@@H](C)O) [compound No. 223]	3.9	7.4
Ac-[Hse23, D-Pro24, Cha27,28,36, Aib31]-PYY(23-36) (Ac-[hSer][dP]RH[Cha][Cha]NL[Aib]TRQR[Cha]-NH2; SMILES CC(=O)N[C@@H](CCO)C(=O)N1CCC[C@@H]1C(=O)N[C@@H](CCCNC(=N)N)C(=O)N[C@@H](Cc1c[nH]cn1)C(=O)N[C@@H](CC1CCCCC1)C(=O)N[C@@H](CC1CCCCC1)C(=O)N[C@@H](CC(N)=O)C(=O)N[C@@H](CC(C)C)C(=O)NC(C)(C)C(=O)N[C@H](C(=O)N[C@@H](CCCNC(=N)N)C(=O)N[C@@H](CCC(N)=O)C(=O)N[C@@H](CCCNC(=N)N)C(=O)N[C@@H](CC1CCCCC1)C(N)=O)[C@@H](C)O) [compound No. 157]	1.6	2.5
